Laboratory results published in PMC3240604.

Target: purified wild-type N1 (C-terminal His tag) (vaccinia virus) (UniProt P17361)
Experiment: SEC-MALS

purified wild-type N1 (C-terminal His tag) (from UniProt P17361) (natural protein)
stoichiometry N: 2
